Legend:
人TIM-4 = molecular target: T1, 人TIM-4 (human, UniProt Q96H15 25-314, limits assumed); assay: ELISA, plate coated with human TIM-4
T1 sequence (looked up): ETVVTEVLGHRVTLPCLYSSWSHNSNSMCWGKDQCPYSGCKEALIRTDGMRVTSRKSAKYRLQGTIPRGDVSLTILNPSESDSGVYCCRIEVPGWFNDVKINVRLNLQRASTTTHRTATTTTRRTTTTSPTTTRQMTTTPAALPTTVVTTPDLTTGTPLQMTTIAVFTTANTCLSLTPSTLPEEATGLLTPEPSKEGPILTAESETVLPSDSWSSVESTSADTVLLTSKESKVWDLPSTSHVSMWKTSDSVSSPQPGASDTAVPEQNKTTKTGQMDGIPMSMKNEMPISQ

人TIM-1 = molecular target: T2, 人TIM-1 (human, UniProt Q96D42 21-295, limits assumed); assay: ELISA, plate coated with human TIM-1
T2 sequence (looked up): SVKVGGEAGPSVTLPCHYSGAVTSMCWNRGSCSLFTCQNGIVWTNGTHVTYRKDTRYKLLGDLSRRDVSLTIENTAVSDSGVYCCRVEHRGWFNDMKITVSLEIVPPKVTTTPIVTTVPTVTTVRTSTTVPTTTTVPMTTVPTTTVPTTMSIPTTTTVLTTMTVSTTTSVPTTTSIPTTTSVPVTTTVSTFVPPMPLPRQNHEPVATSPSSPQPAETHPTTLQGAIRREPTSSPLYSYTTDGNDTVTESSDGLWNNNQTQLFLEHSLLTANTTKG

binding result (人TIM-4): no binding | binding result (人TIM-1): no binding
B1: W3402-2.131.17-z3 (antibody, V domains shown)
VH: QVQLQESGPGLVKPSETLSLTCTVSGFSLTNYGVGWIRQPPGKGLEWIGIMTSGGSTYYNSALRARVTINRDTSKNQFSLKLSSVTAADTAVYYCTRDGTTVETLFDYWGQGTMVTVSS
VL: DIVMTQTPLSLSVTPGQPASISCRSSQSLSDSAGITYLYWYLQKPGQSPQLLIYLASNLGSGVPDRFSGSGSGTDFTLKISRVEAEDVGVYYCMQGIHVPLTFGQGTKLEIK
notes: Humanized monoclonal antibody with a kappa light chain; also called W3402-z3; 人源化变体W3402-z3
